Reference: the DeepSol protein solubility set

Test: soluble on expression in E. coli; label from the status in PepcDB or PDB records

| Sequence | soluble on expression in E. coli |
| --- | --- |
| MALRFITAEEAAEFVHHNDNVGFSGFTPAGNPKVVPAAIAKRAIAAHEKGNPFKIGMFTGASTGARLDGVLAQADAVKFRTPYQSNKDLRNLINNGSTSYFDLHLSTLAQDLRYGFYGKVDVAIIEVADVTEDGKILPTTGVGILPTICRLADRIIVELNDKHPKEIMGMHDLCEPLDPPARRELPVYTPSDRIGKPYVQVDPAKIVGVVRTSEPNDESDFAPLDPVTQAIGDNVAAFLVSEMKAGRIPKDFLPLQSGVGNVANAVLGALGDNPDIPAFNMYTEVIQDAVIALMKKGRIKFASGCSLSVSRSVIQDIYANLDFFKDKILLRPQEYSNNPEIVRRLGVITINTALEADIFGNINSTHVSGTRMMNGIGGSGDFTRNSYVSIFTTPSVMKDGKISSFVPMVAHHDHSEHSVKVIISEWGVADLRGKNPRERAHEIIDKCVHPDYRPLLRQYLELGVKGQTPQNLDCCFAFHQELAKSGDMRNVRWEDYMK | not soluble |
| GVTGISTGFIDLNKKTAGLQPSDLIIVAARPSMGKTTFAMNLCENASLHDIEDHNDLDENGNPRKKPAKPVLIFSLEMPADQIMMRMLASLSRVNQTKIRTGQIHDDEEWAKISSTVAILQERKNIFIDDSAGLTPTELRSRARRIYRENGGLSLIMVDYLQLMRVPNFSDNRTLEIAEISRSLKALAKELEVPVVALSQLNRSLEQRQDKRPVNSDL | not soluble |
| MGSDKIHHHHHHMPTLKEKIIQESQRLGIDKIGFTHAEPFIELEDSLHEQRERGYNSGFEHQNVEERIYPEKTFEHPKSIISIALAYPTKAQEKMPRDEKRGQFARASWGIDYHHILQDRLQKLIAFIEEQAATEAEKEHWRFRPQVDTGEYVDTAVAQRAGLGFIGKNGLLITEEFGSFVYLGEVTTNIQFEPDEPVPNGCGDCTRCITGCPTGALLGDGRMNAQKCLSYQTQTKGMMPEDYRKKMRNVIYGCDICQLVCPYNKGKDFHFHEEMEPKIEEVYPKLAPLLTISNKEFKQQFGHLAGSWRGKKPLQRNALIALANLGGREAIPQIILCLNDQRPVIRGTAAWSLGQLAKREPEQSLEALNYLLSVETEEEVIEEAQKAIHLLTSKKGSRSTE | not soluble |
| MLSKTNQNIFTVSRLNAEVRLLLENEMGIVWLVGEISNFSAPVSGHWYLTLKDSRAQVKCAMFRGNNRRVTFKPANGNQVLVKARLSLYEPRGDYQLIIESMQPEGDGRLQQEFEELKMKLAAEGLFAQTNKLPLPEHPKRVGIITSKTGAALYDILDVLKRRDPSLPVVIYPTMVQGDDAAIQIAQAIGRANSRNECDVLIVGRGGGSLEDLWCFNNEILARTIAASQIPIISAVGHEVDMTIADFVADVRAPTPSAAAELVSRDNSHKDQSLVAKQHKLASAMRYYLSQQKQQSAQLLHRLERQHPSYQLQRQSQQLDELDMRLRRAMQRFIDTRQQAVERKHHRLQLNSPVKHLAQQKSRLERVEHKLLDTMDRKLLTMRHQLAIAAEKLDTVSPLATLKRGYSITQTEQGKVVTSADDVKTGDLLVTRLANGEIHSTVS | not soluble |
| MDSGFTLRAPRNDKRRNPMPAILGTGEHRYRVVENFAKLPDGWQLTDVAAVAVDSLDRVYVFNRGAHPMVVLDREGNFLRSWGEGLFSRAHGLHIDADDNLYCTDDGDHTVRKCTSDGKVLLTIGIPAKPAPFMSGEPFHRCTHTALSPKGEIYVSDGYGNARVHKFTPDGKLIKSWGEPGTDPGQFNIVHNIATDSDGWVYVADRENHRVQVFNGEGKYETQWNNLHRPCALCCCGGRSPTFVIGELGPGLDINRNVPNLGPRLSIVDAKGNRIARLGGEEGPGVASGKFLAPHGIALDSKGDIYVGEVGVTNWATSFPDQEMPAVVRATRCLQKLERVRELEHHHHHH | not soluble |
| MAHHHHHHMYEVYYLNEHDEFEKKKKKNEEIQSSLILKNHAISSEKKSKLVKHNIYEGGYTIWECTWDMLKFFHKEGFDFNNKQVLELGCGHGLVGIKVLLDNGNVVFQELNKEVINDVLLPNIKKNLKMKLKKKKLKENKHYMKINNDKITCYVINKPWHKLNSKLQKKKLNCFDFILGNEILYRKENYYHILKILKKNLKKGGKAYFGSKSYYFGFEDGTGSNSFVTYVNNNEHFNFVARIIQTTTGKSVYSKDIIEVTFSPNND | not soluble |
| MVINSPEKEDTALILYTSGTTGKPKGVMLTFDNILANVDSLDVYKMYEETDVTIALLPLHHILPLLGTGVMPLLYSATIVFLEDISSVALIDAMKKYKGTMMIGVPKLWEVMHKKIMDTINSKAITRFIFKLAKKVNSLSFSKLIFKKVSEGFGGHIKFFVSGGSKLNPQITKDFYTLGIKICEGYGMTETSPIISYTPKNNIVFDSAGKLEHHHHHH | not soluble |
| HLKFQSVFDIIGPVMIGPSSSHTAGAVRIGKVVHSIFGEPSEVTFHLYNSFAKTYQGHGTDKALVAGILGMDTDNPDIKNSLEIAHQKGIKIYWDILKDSNSPHPNTAKITVKNGDRSMSITGVSIGGGNIQVTELNG | not soluble |
| MKKYIALAWVCLALTDVMAQKQKVVEKVVDEDYYPVEGAVVTLKRTNQNATTDKDGVFILEEVPVYFDSLQVKKGKRSGYIDLPMRIQMRTQVMQRFSWSVKAGIGAGKFMQGPESKLKDGFSIYGGVGADIRMSKHWAFQPSLLLVSRKMKGYDFYGYYAENNGDGSSSASYEQVSGTYNPFYLEIPLLFALKYRVGNDMNLVFSFGPYIDLGLSGDEKREYIKHYYDTMEGNKTESVTNSRSLFGKRFTGGFAYGIGVEYGRFLIGGTGRVGCTSWNHSEGFIDVAFEIGYRF | not soluble |
| MSLDAVKMVKGKVAEIMQNDRLGGLDVLEAEFSKTWEFKNHNVAVYSIQGRRDHMEDRFEVLTDLANKTHPSIFGIFDGHGGETAAEYVKSRLPEALKQHLQDYEKDKENSVLSYQTILEQQILSIDREMLEKLTVSYDEAGTTCLIALLSDKDLTVANVGDSRGVLCDKDGNAIPLSHDHKPYQLKERKRIKRAGGFISFNGSWRVQGILAMSRSLGDYPLKNLNVVIPDPDILTFDLDKLQPEFMILASDGLWDAFSNEEAVRFIKERLDEPHFGAKSIVLQSFYRGCPDNITVMVVKFRNSSKTEEQEGHHHHHH | soluble |
| MGSDKIHHHHHHMSFMDQIPGGGNYPKLPVECLPNFPIQPSLTFRGRNDSHKLKNFISEIMLNMSMISWPNDASRIVYCRRHLLNPAAQWANDFVQEQGILEITFDTFIQGLYQHFYKPPDINKIFNAITQLSEAKLGIERLNQRFRKIWDRMPPDFMTEKAAIMTYTRLLTKETYNIVRMHKPETLKDAMEEAYQTTALTERFFPGFELDADGDTIIGATTHLQEEYDSDYDSEDNLTQNGYVHTVRTRRSYNKPMSNHRNRRNNNPSREECIKNRLCFYCKKEGHRLNECRARKASSNRS | not soluble |
| MGHHHHHHSHMFDAAFDPVLTVNSGDSVTVECVSGGVEVMPPAESPYAIPSALQAIHDSNPPRIGPHILTGPIAIAGAEPGDILEVRIEAIEPNNDWGYCAVRPLAGTLPEDFPERYVSHIAVDAQRGVCKPEWGPELPLAPFFGTMGVAPPAKYGRLSSREPREHGGNMDNKELVAGSTLYLPVWVPGANFSVGDGHGRQGDGEVCVNALEMGLTGTFTFVLHKKANGAADIAPFAWPRAETPTHYVLMGFHEDLDLAMKQALRQTIDFITARSNLTRVQAYQFCSLAVDFRVTQTVNGEKGVHALLSKGLLF | not soluble |
| MSLKMTNNTVLITGGSAGIGLELAKRLLELGNEVIICGRSEARLAEAKQQLPNIHTKQCDVADRSQREALYEWALKEYPNLNVLVNNAGIQKEIDFKKGTEELFVDGDEIELNFQAPVHLSALFTPHLMKQPEAAIVQVTSGLAFNPLAVYPVYCATKAALHSFSLTLRHHVRDTSVEVIEMAPPMVDTGLNQKSRDKQGLTYRGISSEEYVQYFLDGLKEGKQEITNERVEGLRDATRADYDRLFEQMNTQEGHHHHHH | soluble |
| ETISAFSNQVIQRGATGDDVVELQARLQYNGYYNGKIDGVYGWGTYWAVRNFQDQFGLKEVDGLVGAKTKQTLICKSKYYREYVMEQLNKGNTFTHYGKIPLKYQTKPSKAATQKARQQAEARQKQPAEKTTQKPKANANKQQNNTPAKARKQDAVAANMPGGFSNNDIRLLAQAVYGEARGEPYEGQVAIAAVILNRLNSPLFPNSVAGVIFEPLAFTAVADGQIYMQPNETAREAVLDAINGWDPSEEALYYFNPDTATSPWIWGRPQIKRIGKHIFCE | not soluble |
| SSLVRRIISTAKAPAAIGPYSQAVLVDRTIYISGQLGMDPASGQLVPGGVVEEAKQALTNIGEILKAAGCDFTNVVKATVLLADINDFSAVNDVYKQYFQSSFPARAAYQVAALPKGGRVEIEAIAVQGPLTTASL | soluble |
| MVLFMLSESKKKATNWEQITKKHGSVQCVKGCCCYSLIISFMKPKEKKDFVLFCLSSVVTCCRPIQIPSRQEKKGKFLCFFLLVLIR | soluble |
| MLQLLLFLIFCSFTNASSCQDKSPYCNPNDCEVRPGYAMVYCRKTCGNCADFCEDSKFITCSAERKKDCDDMLSDYCPRLCGKCYAKLKPDSKRTKTIPVTQFKRNPAATSTTTTTTRSPSIRMKQPRMLPNGTFINPPLPKYEKLDDTTYTIPEHPTVIDYPIAHMEELMIPEPQRIWPEPEPMRIEPISVYSPYSFVPVQPQVSQPYSPWSPTLGLSSSLDSSRRAPQNYFSSYSQYPQYPDEKLNTIAPNPMQLVEPFLTPGQNDLNPKSMSSLINLLGCKDKDEVICKHVTADTCLSRPGYYLKLCPVTCKNCSGYQCIDSIKIDCAEVKAQGACKLSVASEYCPRTCEYCNPPSDMAKTMSDCKDELETCEQLAESGACQHDFR | not soluble |
| MTKAADDNIIVGLDIGTATVSALVGEILPDGQINIIGAGSSPSRGMDKGGVNDLESVVKSVQRAIDQAELMAECQISRVFISLSGKHIASRIEKGMGTISDEEVSQEDMDRAIHTAKSIKIGDEQ | not soluble |
| MSIMLPINNNFSLSQNSFYNTISGTYADYFSAWDKWEKQALPGENRNEAVSLLKECLINQFSELQLNRLNLSSLPDNLPPQITVLEITQNALISLPELPASLEYLDACDNRLSTLPELPASLKHLDVDNNQLTMLPELPALLEYINADNNQLTMLPELPTSLEVLSVRNNQLTFLPELPESLEALDVSTNLLESLPAVPVRNHHSEETEIFFRCRENRITHIPENILSLDPTCTIILEDNPLSSRIRESLSQQTAQPDYHGPRIYFSMSDGQQNTLHRPLADAVTAWFPENKQSDVSQIWHAFEHEEHANTFSAFLDRLSDTVSARNTSGFREQVAAWLEKLSASAELRQQSFAVAADATESCEDRVALTWNNLRKTLLVHQASEGLFDNDTGALLSLGREMFRLEILEDIARDKVRTLHFVDEIEVYLAFQTMLAEKLQLSTAVKEMRFYGVSGVTANDLRTAEAMVRSREENEFTDWFSLWGPWHAVLKRTEADRWALAEEQKYEMLENEYPQRVADRLKASGLSGDADAEREAGAQVMRETEQQIYRQLTDEVLALRLPENGSQLHHS | soluble |
| IGKLKLSARGTFTFTRNKILEYDELPQKYGYQAVTGTRVSENTLYIADRLYTEDDFIVSTNANGLKTYKLRSELPRPTLGGLIGPGDIKYVDVNGDGVIDSYDQVRGVGNPSTPEIIYGFGLNAEYKGFYASIFFQGAGNTSVLLGGATSEGWYPFSWGVDQSNYRTFALDRWTENNPSQDVIIPRLHKNNANNANNRVASTWWLRNGSFLRLKNIEFGYQLPKKFMDKIGFEAARIYIMGYNLAVWDDIKYFDPEAGNANAGLNYPLPRTFTLGLDFTF | not soluble |
| SNVFARSSVLAAEMIDVFDRTHTEKELVFQSKELCRDFIHSRITREGLSWSKVELDLPEPRGVLVDVSVVLLKLGDELECMRPYVYRNIAKQLNISVSVEAVVSDAFLSVATEVIAMGITWGKVVAIYAVAAGLAVDCVRLGHPVMVHTIVDSLGEFVRRSLVPWLKKRGGWVDILKCVVNMDSRAHVHWLSTAVLTWREFIKTMYVYLTK | soluble |
